Changes are numbered by the printed parent chain.
T1: human S100A8/A9 heterodimeric antigen, His-tagged (hS100A8/A9-His) (human, UniProt P05109 1-93; P06702 1-114)
T1 sequence 1: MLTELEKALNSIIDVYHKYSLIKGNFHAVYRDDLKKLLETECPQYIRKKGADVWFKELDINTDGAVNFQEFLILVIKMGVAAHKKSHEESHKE
T1 sequence 2: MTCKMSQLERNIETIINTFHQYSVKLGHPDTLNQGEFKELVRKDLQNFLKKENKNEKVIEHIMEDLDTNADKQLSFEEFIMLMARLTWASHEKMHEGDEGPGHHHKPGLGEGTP

B1: CM-50 (antibody, human IgG4 S228P, lambda, V domains shown)
VH: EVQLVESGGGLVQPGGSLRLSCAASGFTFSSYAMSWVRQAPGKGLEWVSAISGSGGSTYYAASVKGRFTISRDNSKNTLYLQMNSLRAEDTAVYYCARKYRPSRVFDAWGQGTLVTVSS
VL: SYELTQPPSVSVAPGQTARITCSGDALGDKYASWYQQKPGQAPVLVIYEDAKRPSGIPERFSGSNSGNTATLTISGTQAEDEADYYCQSNDADAVWVFGGGTKLTVLG
B2: CM-56 (antibody, human IgG4 S228P, lambda, V domains shown)
VH: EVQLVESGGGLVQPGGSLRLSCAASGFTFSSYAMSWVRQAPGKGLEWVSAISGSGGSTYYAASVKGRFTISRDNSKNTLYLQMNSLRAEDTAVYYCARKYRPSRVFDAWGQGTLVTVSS
VL: B1 VL with A92I
B3: CM-55 (antibody, human IgG4 S228P, lambda, V domains shown)
VH: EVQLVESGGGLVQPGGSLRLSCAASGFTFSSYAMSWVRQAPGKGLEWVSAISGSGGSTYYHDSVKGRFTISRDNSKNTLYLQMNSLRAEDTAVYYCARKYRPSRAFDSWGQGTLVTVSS
VL: B1 VL with Y31F, A51S
B4: CM-60 (antibody, human IgG4 S228P, lambda, V domains shown)
VH: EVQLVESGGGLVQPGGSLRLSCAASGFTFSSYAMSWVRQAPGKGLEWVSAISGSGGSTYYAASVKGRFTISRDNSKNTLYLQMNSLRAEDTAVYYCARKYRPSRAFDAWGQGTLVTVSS
VL: B1 VL with A92I
B5: CM-45 (antibody, human IgG4 S228P, lambda, V domains shown)
VH: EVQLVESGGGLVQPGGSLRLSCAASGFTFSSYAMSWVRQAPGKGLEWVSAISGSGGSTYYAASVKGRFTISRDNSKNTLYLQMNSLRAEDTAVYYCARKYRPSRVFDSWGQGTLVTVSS
VL: B1 VL
B6: CM-42 (antibody, human IgG4 S228P, lambda, V domains shown)
VH: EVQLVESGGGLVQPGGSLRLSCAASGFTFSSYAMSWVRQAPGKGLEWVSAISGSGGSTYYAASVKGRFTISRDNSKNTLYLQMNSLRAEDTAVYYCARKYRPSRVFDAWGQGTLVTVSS
VL: B1 VL with A51S, A92I, A94S
B7: CM-40 (antibody, human IgG4 S228P, lambda, V domains shown)
VH: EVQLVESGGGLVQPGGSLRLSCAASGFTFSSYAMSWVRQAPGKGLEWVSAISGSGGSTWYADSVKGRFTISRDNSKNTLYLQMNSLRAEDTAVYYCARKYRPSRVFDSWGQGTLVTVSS
VL: B1 VL with A51S, A92V, A94S
B8: CM-43 (antibody, human IgG4 S228P, lambda, V domains shown)
VH: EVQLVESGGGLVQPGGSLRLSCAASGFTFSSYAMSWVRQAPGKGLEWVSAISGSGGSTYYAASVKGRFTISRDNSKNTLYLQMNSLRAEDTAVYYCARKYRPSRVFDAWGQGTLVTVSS
VL: B1 VL with A94S
B9: CM-62 (antibody, human IgG4 S228P, lambda, V domains shown)
VH: EVQLVESGGGLVQPGGSLRLSCAASGFTFSSYVMSWVRQAPGKGLEWVSAISGSGGSTYYAASVKGRFTISRDNSKNTLYLQMNSLRAEDTAVYYCARKYRPSRVFDAWGQGTLVTVSS
VL: B1 VL with K52R
B10: CM-46 (antibody, human IgG4 S228P, lambda, V domains shown)
VH: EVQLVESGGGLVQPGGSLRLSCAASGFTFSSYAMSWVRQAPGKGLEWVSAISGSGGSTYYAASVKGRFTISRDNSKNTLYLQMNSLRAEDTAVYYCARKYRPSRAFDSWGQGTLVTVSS
VL: B1 VL with Y31F, A51S, A94S
B11: CM-41 (antibody, human IgG4 S228P, lambda, V domains shown)
VH: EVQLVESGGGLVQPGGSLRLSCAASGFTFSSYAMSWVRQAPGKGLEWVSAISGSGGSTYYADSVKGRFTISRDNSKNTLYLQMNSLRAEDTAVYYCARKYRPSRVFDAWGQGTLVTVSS
VL: B1 VL with A51S
B12: CM-72 (antibody, human IgG4 S228P, lambda, V domains shown)
VH: B9 VH with F29Y, V33A, V105A
VL: B1 VL with Y31F, A92I
B13: CM-71 (antibody, human IgG4 S228P, lambda, V domains shown)
VH: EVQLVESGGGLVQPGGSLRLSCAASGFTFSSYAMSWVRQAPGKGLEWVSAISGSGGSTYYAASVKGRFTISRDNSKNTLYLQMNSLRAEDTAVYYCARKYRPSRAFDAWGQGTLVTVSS
VL: B1 VL with Y31F, A92I
B14: CM-53 (antibody, human IgG4 S228P, lambda, V domains shown)
VH: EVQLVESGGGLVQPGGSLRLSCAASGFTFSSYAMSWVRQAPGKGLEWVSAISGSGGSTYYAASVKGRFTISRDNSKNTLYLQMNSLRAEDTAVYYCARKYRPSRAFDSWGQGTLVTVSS
VL: B1 VL
B15: CM-68 (antibody, human IgG4 S228P, lambda, V domains shown)
VH: B9 VH with V33A, M34I, V105A
VL: B1 VL with A92L
B16: CM-49 (antibody, human IgG4 S228P, lambda, V domains shown)
VH: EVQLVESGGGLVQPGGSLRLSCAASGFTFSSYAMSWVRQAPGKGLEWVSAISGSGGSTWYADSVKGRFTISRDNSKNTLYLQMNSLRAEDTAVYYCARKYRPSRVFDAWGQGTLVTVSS
VL: B1 VL with A92I, A94S
B17: CM-67 (antibody, human IgG4 S228P, lambda, V domains shown)
VH: B9 VH with Y32H, V33A, Y100F
VL: B1 VL with K52R
B18: CM-69 (antibody, human IgG4 S228P, lambda, V domains shown)
VH: B9 VH with V33A, Y59W, V105A
VL: B1 VL with E49Q
B19: CM-61 (antibody, human IgG4 S228P, lambda, V domains shown)
VH: B9 VH with F29Y, V33A
VL: B1 VL with E49Q
B20: CM-65 (antibody, human IgG4 S228P, lambda, V domains shown)
VH: B9 VH with F29Y, V33A
VL: B1 VL with E49Q, A92I
B21: CM-58 (antibody, human IgG4 S228P, lambda, V domains shown)
VH: B9 VH with V33A, Y59W
VL: B1 VL with A92I
B22: CM-63 (antibody, human IgG4 S228P, lambda, V domains shown)
VH: B9 VH with V33A, Y59W
VL: B1 VL with A92V
B23: CM-59 (antibody, human IgG4 S228P, lambda, V domains shown)
VH: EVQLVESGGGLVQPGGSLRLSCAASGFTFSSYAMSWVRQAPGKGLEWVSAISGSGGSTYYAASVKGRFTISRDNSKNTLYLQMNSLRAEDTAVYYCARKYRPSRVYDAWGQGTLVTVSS
VL: B1 VL with A92I
B24: CM-64 (antibody, human IgG4 S228P, lambda, V domains shown)
VH: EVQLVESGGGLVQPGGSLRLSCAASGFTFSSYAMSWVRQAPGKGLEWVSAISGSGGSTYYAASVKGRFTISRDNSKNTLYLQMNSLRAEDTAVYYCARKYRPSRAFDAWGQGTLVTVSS
VL: B1 VL with Y31F
B25: CM-54 (antibody, human IgG4 S228P, lambda, V domains shown)
VH: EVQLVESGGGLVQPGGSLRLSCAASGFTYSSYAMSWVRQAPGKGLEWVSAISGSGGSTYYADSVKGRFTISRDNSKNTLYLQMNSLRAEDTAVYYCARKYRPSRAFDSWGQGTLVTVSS
VL: B1 VL with Y31F, A51S, A92I, A94S
B26: CM-47 (antibody, human IgG4 S228P, lambda, V domains shown)
VH: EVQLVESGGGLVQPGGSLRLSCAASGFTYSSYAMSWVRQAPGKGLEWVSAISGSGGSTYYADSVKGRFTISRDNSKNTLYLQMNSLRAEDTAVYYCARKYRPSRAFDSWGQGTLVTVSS
VL: B1 VL with A51S, A92I, A94S
B27: CM-52 (antibody, human IgG4 S228P, lambda, V domains shown)
VH: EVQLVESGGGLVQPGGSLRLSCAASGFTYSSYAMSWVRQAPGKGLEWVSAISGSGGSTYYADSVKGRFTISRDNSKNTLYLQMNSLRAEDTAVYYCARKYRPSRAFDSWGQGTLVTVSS
VL: B1 VL with A92I, A94S
B28: CM-57 (antibody, human IgG4 S228P, lambda, V domains shown)
VH: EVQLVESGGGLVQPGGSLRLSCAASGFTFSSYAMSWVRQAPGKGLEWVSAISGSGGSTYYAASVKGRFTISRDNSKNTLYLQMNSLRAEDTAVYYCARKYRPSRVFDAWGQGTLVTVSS
VL: B1 VL with Y31F, A92I
B29: CM-48 (antibody, human IgG4 S228P, lambda, V domains shown)
VH: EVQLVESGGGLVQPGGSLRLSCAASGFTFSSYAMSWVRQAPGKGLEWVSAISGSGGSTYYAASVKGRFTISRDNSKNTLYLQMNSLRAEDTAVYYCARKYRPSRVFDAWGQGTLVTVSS
VL: B1 VL with Y31F, A51S, A92I, A94S
B30: CM-70 (antibody, human IgG4 S228P, lambda, V domains shown)
VH: B9 VH with V33A, A61H, V105A
VL: B1 VL with Y31F
B31: CM-44 (antibody, human IgG4 S228P, lambda, V domains shown)
VH: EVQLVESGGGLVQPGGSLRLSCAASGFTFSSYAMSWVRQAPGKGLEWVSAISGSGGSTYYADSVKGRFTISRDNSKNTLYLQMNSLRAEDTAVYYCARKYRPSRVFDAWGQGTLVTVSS
VL: B1 VL
B32: CM-66 (antibody, human IgG4 S228P, lambda, V domains shown)
VH: B9 VH with F29Y, V33A, V105A
VL: B1 VL with A92I

biological target: T1, human S100A8/A9 heterodimeric antigen, …; assay: cell-based or functional assay

Relative IC50 (IC50 relative to CM-1), IL-6 release from hS100A8/A9-activated human PBMCs | Binder
0.679 relative to CM-1 | B1
1.12 relative to CM-1 | B2
1.67 relative to CM-1 | B3
0.936 relative to CM-1 | B4
2.09 relative to CM-1 | B5
0.866 relative to CM-1 | B6
2.18 relative to CM-1 | B7
1.99 relative to CM-1 | B8
1.58 relative to CM-1 | B9
1.51 relative to CM-1 | B10
1.11 relative to CM-1 | B11
0.639 relative to CM-1 | B12
1.23 relative to CM-1 | B13
0.357 relative to CM-1 | B14
1.78 relative to CM-1 | B15
0.617 relative to CM-1 | B16

Relative IC50 (IC50 relative to CM-1), IL-6 release from hS100A8/A9-activated human PBMCs | Binder
0.548 relative to CM-1 | B17
1.93 relative to CM-1 | B18
0.923 relative to CM-1 | B19
0.618 relative to CM-1 | B20
1.52 relative to CM-1 | B21
1.33 relative to CM-1 | B22
1.04 relative to CM-1 | B23
0.5 relative to CM-1 | B24
0.997 relative to CM-1 | B25
2.12 relative to CM-1 | B26
1.19 relative to CM-1 | B27
1.16 relative to CM-1 | B28
1.58 relative to CM-1 | B29
1.95 relative to CM-1 | B30
1.44 relative to CM-1 | B31
0.694 relative to CM-1 | B32
